Measured values: the DeepSol protein solubility set

Assay: soluble on expression in E. coli; label from the status in PepcDB or PDB records
In the case of “MEIKEMVSLARKAQKEYQATHNQEAVDNICRAAAKVIYENAAILAREAVDETGMGVYEHKVAKNQGKSKGVWYNLHNKKSIGILNIDERTGMIEIAKPIGVVGAVTPTTNPIVTPMSNIIFALKTCNAIIIAPHPRSKKCSAHAVRLIKEAIAPFNVPEGMVQIIEEPSIEKTQELMGAVDVVVATGGMGMVKSAYSSGKPSFGVGAGNVQVIVDSNIDFEAAAEKIITGRAFDNGIICSGEQSIIYNEADKEAVFTAFRNHGAYFCDEAEGDRARAAIFENGAIAKDVVGQSVAFIAKKANINIPEGTRILVVEARGVGAEDVICKEKMCPVMCALSYKHFEEGVEIARTNLANEGNGHTCAIHSNNQAHIILAGSELTVSRIVVNAPSATTAGGHIQNGLAVTNTLGCGSWGNNSISENFTYKHLLNISRIAPLNSSIHIPDDKEIWEL”, the “soluble on expression in E. coli” value is reported as “soluble”. With “MEIQHLDGHIVKVQRDKVTWPGARLRKKDEGMPSLEDNNKKGMLVVTFDVEFPKTELSDEQKAQIIEILQQNTVKPKAYNGL” the “soluble on expression in E. coli” value was “not soluble”. In the case of “MEIRTFLERALKEDLGHGDLFERVLEKDFKATAFVRAKQEGVFSGEKYALELLEMTGIECVQTIKDKERFKPKDALMEIRGDFSMLLKVERTLLNLLQHSSGIATLTSRFVEALNSHKVRLLDTRKTRPLLRIFEKYSVLNGGASNHRLGLDDALMLKDTHLRHVKDLKSFLTHARKNLPFTAKIEIECESFEEAKNAMNAGADIVMCDNLSVLETKEIAAYRDAHYPFVLLEASGNISLESINAYAKSGVDAISVGALIHQATFIDMHMKMA”, the “soluble on expression in E. coli” value is reported as “soluble”. For “MEISGEEDKEEAVTLPKEVSKISISDGNKFVYQILNGPNEQCFENFRMDKPVFYKLCDLLQTRGLLRHTNRIKIEAQLAIFLFIIGHNLRTRAVQELFCYSGETISRHFNNVLNAVIAISKDFFQPNSNSDTLENDDPYFKDCVGVVDSFHIPVMVGVDEQGPFRNGNGLLTQNVLAASSFDLRFNYVLAGWEGSASDQQVLNAALTRRNKLQVPQGKYYIVDNKYPNLPGFIAPYHGVSTNSREEAKEMFNERHKLLHRAIHRTFGALKERFPILLSAPPYPLQTQVKLVIAACALHNYVRLEKPDDLVFRMFEEETLAEAGEDREVALEEEQVEIVGQEHGFRPEEVEDSLRLRDEIASELWNHYVQNMSTF”, the “soluble on expression in E. coli” value was “soluble”. For “MEITDPGDFRQRIETSFARQGVVQAINAEISRIEHRLVEIELPFHEKLTQQHGILHAGVIAAGLDTACTYAAYTIIEPEASLLTIEFKVNLMSPGRGERFLFRGEIIKPGNNLIVADGRAYALSDGPAKLIASMTGTMMVVKGREDITGLEHHHHHH”, the “soluble on expression in E. coli” value was “soluble”. For “MEIYHQYIKLRKQFGRFPKFGDEGSEMLADIRPNEDHGKEYIPRNPVTTVTQCVPEMSEHEANTNAVILVNKAMSHVEGGWPKDVDYTEAEHTIRYRKKVEKDEDYIRTVVQLGSSVEDLIKQNNAVDIYQEYFTNVTMDHTSEAPHVKTVTVFKDPNNIKRSASYVNWHPDGSVPKVVVAYSILQFQQQPAGMPLSSYIWDVNNPNTPEYEMVPTSQICCAKFNLKDNNLVGAGQYNGQLAYFDVRKGNGPVEATPIDISHRDPIYDFAWLQSKTGTECMTVSTDGNVLWWDLRKMNECVENMPLKEKNSETTVGGVCLEYDTNAGPTNFMVGTEQGQIFSCNRKAKNPVDRVKYVLSGHHGPIYGLRRNPFNSKYFLSIGDWTARVWVEDTAVKTPILTTKYHPTYLTGGTWSPSRPGVFFTIKMDGAMDVWDLYYKHNEPTLTVQVSDLALTAFAVQESGGTVAVGTSDGCTSVLQLSTGLSEASPAEKANINAMFERETTREKNLEKAIKEAKVKARKEQGRRDEVKDNVTEEQLKALEDEFFKTTDPAVGGGYGAGEGAAAE”, the “soluble on expression in E. coli” value was “not soluble”. With “MEKASSPEKWLAKVSVTLTKAKPDEIWPLFTDFFNLHKWLPTLATCHGVHGNNGEQGCIRFCSGFSIGSNGVDSAARWSKEKLVAVNPVERVMRYEIVESNTGFESYVSTVKILPRGEDGCVIEWSFTVDPVRGLSLENLVKKYEKALEIITKNMEEDALRRRESSS” the “soluble on expression in E. coli” value was “soluble”. For “MEKEQLIEIANTIMPFGKYKGRRLIDLPEEYLLWFARKDEFPAGKLGELMQITLLIKNEGLTQLVQPLKRPL”, the “soluble on expression in E. coli” value was “soluble”. For “MEKFLVIAGPNAIESEELLLKVGEEIKRLSEKFKEVEFVFKSSFDKANRSSIHSFRGHGLEYGVKALRKVKEEFGLKITTDIHESWQAEPVAEVADIIQIPAFLCRQTDLLLAAAKTGRAVNVKKGQFLAPWDTKNVVEKLKFGGAKEIYLTERGTTFGYNNLVVDFRSLPIMKQWAKVIYDATHSVQLPGGLGDKSGGMREFIFPLIRAAVAVGCDGVFMETHPEPEKALSDASTQLPLSQLEGIIEAILEIREVASKYYETIPVK”, the “soluble on expression in E. coli” value was “soluble”. For “MEKFRVIGSTQPLQGEVTISGAKNAALPILFASILAEEPVEVANVPHLRDIDTTMELLERLGAKVERNGSVHVDAGPINQYCAPYDLVKTMRASIWALGPLVARFGQGQVSLPGGCAIGARPVDLHIHGLEQLGATITLEDGYVKAHVDGRLQGAHIVMDKVSVGATITIMCAATLAEGTTVLDNAAREPEIVDTAMFLNKLGAKISGAGTDSITIEGVERLGGGKHAVVPDRIETGTFLVAAAVSRGKIVCRNTHAHLLEAVLAKLEEAGAEIECGEDWISLDMTGRELKAVTVRTAPHPGFPTDMQAQFTLLNMMAKGGGVITETIFENRFMHVPELKRMGAKAEIEGNTVICGDVDRLSGAQVMATDLRASASLVIAGCIAKGETIVDRIYHIDRGYERIEDKLSALGANIERFRD”, the “soluble on expression in E. coli” value was “not soluble”. In the case of “MEKGSVMSLFIYMSQSMFNFDALTPDFMWYALESIGIRAESGFLPLNSYENRVYQFTDEERRRYVVKFYRPERWSNEQIQEEHDFTLELIDSEIPVAPPVRINGNTLHHYQGYGFALFESVGGRQFEVDNLEQLEGVGRFLGRIHKVGSRQAFQHRPTIGLQEYLYQPREILQNANMIPMHLENSFFNDLDMLIKAIENHWQGSFATIRLHGDCHPGNILWRDGPMFVDLDDSRNGPAVQDLWMLLNGERQDKLMQLDIILEAYQEFCDFNAAELKLIEPLRGLRMVHYMAWLAKRWHDPAFPLAFPWFNEPKYWEGQVLAFKEQIASLEEAPLSLMPQWLEHHHHHH”, the “soluble on expression in E. coli” value is reported as “not soluble”. With “MEKKFPTVVTIGGRRYVKNNLNRKSEDCKMKLKEALKSFGRRVQKLQMSHCTIEKGTSLHVYKLDDARVIFTKKNKPIGFVVTGKAEEIDKSVYEKASSEINDATGKPNEPGAEERAEKDDASLID” the “soluble on expression in E. coli” value was “not soluble”. For “MEKLHQCYWKSGEPQSDDIEASRMKRAAAKHLIERYYHQLTEGCGNEACTNEFCASCPTFLRMDNNAAAIKALELYKINAKLCDPHPSKKGASSAYLENSKGAPNNSCSEIKMNKKGARIDFKDVTYLTEEKVYEILELCREREDYSPLIRVIGRVFSSAEAL”, the “soluble on expression in E. coli” value was “soluble”. With “MEKLTKRQQDILDFIKLKVQEKGYPPSVREIGQAVGLASSSTVHGHLSRLEEKGYIRRDPTKPRAIEILGEDRMDTETQSVIQVPIVGKVTAGLPITAVESVEEHFPLPASIVAGADQVFMLRISGDSMIEAGIFDGDLVVVRQQQSAYNGEIVVALTEDNEATVKRFYKEKDHFRLQPENSSLEPIILKQVSVIGKVIGVYRDLH” the “soluble on expression in E. coli” value was “not soluble”. For “MEKMHITNQEHDAFVKSHPNGDLLQLTKWAETKKLTGWYARRIAVGRDGEVQGVAQLLFKKVPKLPYTLCYISRGFVVDYSNKEALNALLDSAKEIAKAEKAYAIKIDPDVEVDKGTDALQNLKALGFKHKGFKEGLSKDYIQPRMTMITPIDKNDDELLNSFERRNRSKVRLALKRGTTVERSDREGLKTFAELMKITGERDGFLTRDISYFENIYDALHEDGDAELFLVKLDPKENIAKVNQELNELHAEIAKWQQKMETSEKQAKKAQNMINDAQNKIAKNEDLKRDLEALEKEHPEGIYLSGALLMFAGSKSYYLYGASSNEFRDFLPNHHMQYTMMKYAREHGATTYDFGGTDNDPDKDSEHYGLWAFKKVWGTYLSEKIGEFDYILNQPLYQLIEQVKPRLTKAKIKISRKLKRK”, the “soluble on expression in E. coli” value was “not soluble”. With “MEKNWYVVHTYSGYENKVKANLEKRVESMGMQDKIFRVVVPEETETDVKNGKRKTTKKKVFPGYVLVEMVMTDDSWYVVRNTPGVTGFVGSSGAGSKPTPLMEEEVKMILKRMGMPLAEVDVDYEVNETVRIKEGPFANFTGKIEAIDPDKHKVKLLVDMFGRETRVELEFSQIEKI” the “soluble on expression in E. coli” value was “not soluble”. With “MEKRGVIDTWIDKHRSIYTAATRHAFVVSIRDGSVDLSSFRTWLGQDYLFVRRFVPFVASVLIRACKDSGESSDMEVVLGGIASLNDEIEWFKREGSKWDVDFSTVVPQRANQEYGRFLEDLMSSEVKYPVIMTAFWAIEAVYQESFAHCLEDGNKTPVELTGACHRWGNDGFKQYCSSVKNIAERCLENASGEVLGEAEDVLVRVLELEVAFWEMSRGGQ” the “soluble on expression in E. coli” value was “soluble”. In the case of “MEKYSQVIFDKNTVEFVTVAAEFCGFLERARDMKRYDFVDTALKILPLLYLKATLLPPCEPIGEDEPETFVTEEDYELIRRAIAGVLGAKDDYLEVFLPDMVYSDTPIKKCISEDLADIYQDLKDFISVFQLGLNETMNDSLVVCKEHFREFWGQRLVNTMRALHDVKYSPADDGEEEEMEDENSLLLEHHHHHH”, the “soluble on expression in E. coli” value is reported as “soluble”. With “MELERIVSAALLAFVQTHLPEADLSGLDEVIFSYVLGVLEDLGPSGPSEENFDMEAFTEMMEAYVPGFAHIPRGTIGDMMQKLSGQLSDARNKENLQPQSSGVQGQVPISPEPLQRPEMLKEETRSSAAAAADTQDEATGAEEELLPGVDVLLEVFPTCSVEQAQWVLAKARGDLEEAVQMLVEGKEEGPAAWEGPNQDLPRRLRGPQKDELKSFILQKYMMVDSA” the “soluble on expression in E. coli” value was “soluble”. In the case of “MELISIIVPVYNGEIYIGRCLDSILEQTYQNLEIIIIDDGSSDRTGDICEKYFLEDRRIKYFYQENRGQSVARNNGVLRCTGDWIAFLDSDDVYLPYSIEVMYNIQKATNADIVLTSIGNFNNTYNTSINSQYLKEIKLYTLEVALEEMYYGKTYGVSPLAKLYPRSNLLSNPYPEGKIHEDMDTTFKLISCASKIAVCDIVTAVVYFSDNSTTRTKFNERMLYFFEAIQNNIVFINLNFPHNTSLISAVIYNEVFGGIDICGKMIDFKLYDTVDYYRKKYRKYFKTILFNNRISVKEKVKYILFISSIRYFTIVRKIYNLRLSRNGLEHHHHHH”, the “soluble on expression in E. coli” value is reported as “not soluble”. For “MELPFSQACENNKDPILEVLKTAFSDCTRVLEVGSGTGQHAVYFASQLPNIHWQASDQKEYLPGVTARIKQEGVTNQPLPVEFDVFADAPGGTFNALFTANTCHIMPKEGVERLFEHLEGDLSSVERLCIYGPFNDNGHFTSDSNRGFHQSLQSRNSDMGIRDWQWITELANQQGFELKKIHPLPANNQLLEFQRLEHHHHHH”, the “soluble on expression in E. coli” value was “soluble”. For “MELQEVLHMNGGEGDTSYAKNSSYNLFLIRVKPVLEQCIQELLRANLPNINKCFKVGDLGCASGPNTFSTVRDIVQSIDKVGQEKKNELERPTIQIFLNDLFQNDFNSVFKLLPSFYRNLEKENGRKIGSCLIGAMPGSFYSRLFPEESMHFLHSCYCLHWLSQVPSGLVTELGISVNKGCIYSSKASRPPIQKAYLDQFTKDFTTFLRIHSEELISRGRMLLTFICKEDEFDHPNSMDLLEMSINDLVIEGHLEEEKLDSFNVPIYAPSTEEVKRIVEEEGSFEILYLETFNAPYDAGFSIDDDYQGRSHSPVSCDEHARAAHVASVVRSIYEPILASHFGEAILPDLSHRIAKNAAKVLRSGKGFYDSVIISLAKKPEKADM”, the “soluble on expression in E. coli” value was “soluble”. With “MELTMKNPTVENLKVLTQEFFSLHWNAVLLGSDYPEWSDIYEFTGSMPNHDKQGVYAFVKNGVVTYIGVGASSNGTGRYAGHGLGKRFQSYSKVVDGRHVPTDPRLVDAGAMITIGFKPEQSYLAYALEMFLIGKMSTEHNINRPSK” the “soluble on expression in E. coli” value was “not soluble”.
